Patent publication US20180194839A1 (Novartis, published 2018)

What was measured:
[1] = biological target: T1, recombinant mouse IL-1β (R&D Systems Cat#401-ML) (mouse, UniProt P10749 118-269); experiment: ELISA, coated cytokine;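 note: antibodies incubated 3 h at room temperature on cytokine-coated plates, binding read out with alkaline phosphatase-conjugated anti-species IgG secondary antibodies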
T1 construct: also called mIL-1β
T1 sequence (looked up): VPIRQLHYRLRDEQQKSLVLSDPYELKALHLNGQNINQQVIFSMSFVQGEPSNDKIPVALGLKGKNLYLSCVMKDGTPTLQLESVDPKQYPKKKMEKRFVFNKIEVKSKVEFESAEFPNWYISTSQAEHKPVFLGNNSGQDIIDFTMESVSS

[2] = biological target: T2, recombinant mouse IL-6 (R&D Systems Cat#406-ML-010/CF) (mouse, UniProt P08505 25-211); experiment: ELISA, coated cytokine;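 note: antibodies incubated 3 h at room temperature on cytokine-coated plates, binding read out with alkaline phosphatase-conjugated anti-species IgG secondary antibodies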
T2 construct: coated at 0.5 µg/ml; also called mIL-6
T2 sequence (looked up): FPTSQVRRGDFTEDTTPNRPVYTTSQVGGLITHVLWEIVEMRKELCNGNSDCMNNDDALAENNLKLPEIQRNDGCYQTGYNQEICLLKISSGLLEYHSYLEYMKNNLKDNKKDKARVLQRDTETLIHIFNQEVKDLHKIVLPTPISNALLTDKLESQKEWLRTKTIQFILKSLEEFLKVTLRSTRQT

[3] = biological target: T3, recombinant mouse IL-18 (MBL Cat#B004-5) (mouse, UniProt P70380 36-192); experiment: ELISA, coated cytokine;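 note: antibodies incubated 3 h at room temperature on cytokine-coated plates, binding read out with alkaline phosphatase-conjugated anti-species IgG secondary antibodies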
T3 construct: also called mIL-18
T3 sequence (looked up): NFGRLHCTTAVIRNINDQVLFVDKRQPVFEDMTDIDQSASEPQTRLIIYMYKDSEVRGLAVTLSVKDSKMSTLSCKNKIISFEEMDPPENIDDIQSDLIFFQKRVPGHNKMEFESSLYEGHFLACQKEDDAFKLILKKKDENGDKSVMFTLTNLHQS

[4] = biological target: T4, recombinant rat IL-6 (R&D Systems Cat#506-RL-010) (rat, UniProt P20607 25-211); experiment: ELISA, coated cytokine;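 note: antibodies incubated 3 h at room temperature on cytokine-coated plates, binding read out with alkaline phosphatase-conjugated anti-species IgG secondary antibodies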
T4 sequence (looked up): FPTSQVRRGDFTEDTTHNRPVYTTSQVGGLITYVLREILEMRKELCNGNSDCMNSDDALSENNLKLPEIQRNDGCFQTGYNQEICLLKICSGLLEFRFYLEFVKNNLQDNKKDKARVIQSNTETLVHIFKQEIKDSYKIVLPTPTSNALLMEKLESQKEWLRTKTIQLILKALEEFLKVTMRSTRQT

[5] = biological target: T5, recombinant rat TNFα (R&D Systems Cat#510-RT/CF) (rat, UniProt P16599 80-235); experiment: ELISA, coated cytokine
T5 sequence (looked up): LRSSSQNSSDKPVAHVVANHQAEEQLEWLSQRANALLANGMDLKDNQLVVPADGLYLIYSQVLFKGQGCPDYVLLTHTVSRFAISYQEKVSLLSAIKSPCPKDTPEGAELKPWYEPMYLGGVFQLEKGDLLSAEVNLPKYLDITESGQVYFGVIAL

[6] = biological target: T6, recombinant human IL-17A (SEQ ID NO: 78) (human, UniProt Q16552 24-155, limits assumed); experiment: SPR (Biacore), captured antibody, antigen as analyte
T6 construct: homodimer; also called huIL-17A; hulL-17A
T6 sequence: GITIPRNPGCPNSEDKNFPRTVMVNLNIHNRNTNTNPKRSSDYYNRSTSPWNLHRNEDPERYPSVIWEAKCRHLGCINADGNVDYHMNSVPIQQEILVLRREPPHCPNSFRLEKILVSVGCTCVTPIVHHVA

[7] = biological target: T7, recombinant human IL-17A/F heterodimer (human, UniProt Q16552 24-155; Q96PD4 31-163, limits assumed); experiment: as above
T7 construct: heterodimer of an IL-17A subunit and an IL-17F subunit; also called huIL-17A/F; rhuIL-17A/F
T7 sequence (looked up) 1: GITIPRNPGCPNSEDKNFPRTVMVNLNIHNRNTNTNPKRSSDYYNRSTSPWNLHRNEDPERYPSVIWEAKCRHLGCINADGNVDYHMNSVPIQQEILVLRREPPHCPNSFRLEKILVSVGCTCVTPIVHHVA
T7 sequence (looked up) 2: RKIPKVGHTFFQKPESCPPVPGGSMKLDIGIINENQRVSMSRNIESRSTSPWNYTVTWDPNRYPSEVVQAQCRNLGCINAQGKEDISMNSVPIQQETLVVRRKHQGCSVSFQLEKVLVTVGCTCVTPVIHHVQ

[8] = biological target: T8, recombinant cynomolgus IL-17A (SEQ ID NO: 79) (cynomolgus monkey, UniProt Q16552 24-155 (human entry), limits assumed); experiment: as above
T8 construct: also called cynoIL-17A; cyno IL-17A
T8 chain: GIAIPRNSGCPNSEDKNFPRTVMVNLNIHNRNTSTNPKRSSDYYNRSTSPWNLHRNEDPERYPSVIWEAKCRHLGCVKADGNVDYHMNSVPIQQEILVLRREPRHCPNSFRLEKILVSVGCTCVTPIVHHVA

[9] = biological target: T9, marmoset IL-17A (SEQ ID NO: 82) (marmoset monkey); experiment: as above
T9 construct: also called marmIL-17A
T9 chain: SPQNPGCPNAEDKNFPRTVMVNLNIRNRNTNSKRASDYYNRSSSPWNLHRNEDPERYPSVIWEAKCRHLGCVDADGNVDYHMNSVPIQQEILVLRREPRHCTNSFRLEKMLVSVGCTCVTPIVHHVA

[10] = biological target: T10, recombinant mouse IL-17A (SEQ ID NO: 83) (mouse, UniProt Q62386 26-158); experiment: as above
T10 construct: also called mIL-17A; rmIL-17A
T10 sequence: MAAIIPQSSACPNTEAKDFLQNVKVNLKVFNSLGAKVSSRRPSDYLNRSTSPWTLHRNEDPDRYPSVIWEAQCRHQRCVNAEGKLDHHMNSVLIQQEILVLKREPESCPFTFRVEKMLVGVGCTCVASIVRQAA

[11] = biological target: T11, recombinant rat IL-17A (SEQ ID NO: 85) (rat, UniProt Q61453 18-150); experiment: as above
T11 construct: also called rratIL-17A; rIL-17A
T11 sequence: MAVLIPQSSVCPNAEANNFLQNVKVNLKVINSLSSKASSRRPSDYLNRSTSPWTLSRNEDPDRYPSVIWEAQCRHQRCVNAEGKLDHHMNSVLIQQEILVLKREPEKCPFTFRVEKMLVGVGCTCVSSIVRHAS

[12] = biological target: T12, human IL-17A (construct not stated) (human, UniProt Q16552 24-155, limits assumed); experiment: cell-based or functional assay
T12 sequence: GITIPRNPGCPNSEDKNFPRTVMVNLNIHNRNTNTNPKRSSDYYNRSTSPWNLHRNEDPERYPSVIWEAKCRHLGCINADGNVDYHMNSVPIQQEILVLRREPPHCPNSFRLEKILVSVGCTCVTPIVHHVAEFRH

B1: XAB4 (antibody, human IgG1, kappa, V domains shown)
VH: EVQLVESGGDLVQPGGSLRLSCAASGFTFSSYWMSWVRQAPGKGLEWVANIKQDGSEKYYVDSVKGRFTISRDNAKNSLYLQMNSLRAEDTAVYYCARDRGSLYYWGQGTLVTVSS
VL: AIQLTQSPSSLSASVGDRVTITCRPSQGINWELAWYQQKPGKAPKLLIYDASSLEQGVPSRFSGSGSGTDFTLTISSLQPEDFATYYCQQFNSYPLTFGGGTKVEIKR
notes: also called MB435 N56Q
- binding result [1]: no binding (tested: 10 µg/ml)
- binding result [2]: no binding (tested: 10 µg/ml)
- binding result [3]: no binding (tested: 10 µg/ml)
- binding result [4]: no binding (tested: 10 µg/ml)
- binding result [5]: no binding (tested: 10 µg/ml)
- Kd [6]: 5.7 pM
- Kd [7]: < 0.011 nM
- Kd [8]: 0.031 nM
- Kd [9]: 0.018 nM
- Kd [10]: 0.16 nM
- Kd [11]: 0.084 nM

B2: XAB1 (antibody, human IgG1, kappa, V domains shown)
VH: EVQLVESGGDLVQPGGSLRLSCAASGFTFSSYWMSWVRQAPGKGLEWVANIKQDGSEKYYVDSVKGRFTISRDNAKNSLYLQMNSLRAEDTAVYYCARDRGSLYYWGQGTLVTVSS
VL: AIQLTQSPSSLSASVGDRVTITCRPSQGIISALAWYQQKPGKAPKLLIYDASSLENGVPSRFSGSGSGTDFTLTISSLQPEDFATYYCQQFNSYPLTFGGGTKVEIKR
notes: human IgG1/kappa monoclonal antibody; also called parental XAB1; XAB1 IgG
- binding result [1]: no binding (tested: 10 µg/ml)
- binding result [2]: no binding (tested: 10 µg/ml)
- binding result [3]: no binding (tested: 10 µg/ml)
- binding result [4]: no binding (tested: 10 µg/ml)
- binding result [5]: no binding (tested: 10 µg/ml)
- IC50, in vitro neutralization, Hu IL-6 sec [12]: 4 nM
- IC50, in vitro neutralization, Hu IL-8 sec [12]: 3 nM
